Common to all, as to test: crystal structure
Experiment [1] concerns the target PII-nitrogen regulatory protein NifI2 from Methanocaldococcus infernus (Methanocaldococcus infernus strain DSM 11812).
The target is the same in experiment [2]. The source holds these as a separate data set.
The target of experiment [3] is nitrogenase reductase NifH (dimer) from Methanocaldococcus infernus (Methanocaldococcus infernus strain DSM 11812).

Like-named read-outs stand apart in the source and are kept apart here.

The stoichiometry N is the number of molecules, sites or subunits per partner or assembly. As to “PII-nitrogen regulatory protein NifI2 from Methanocaldococcus infernus (natural protein)”, the stoichiometry N in experiment [1] and in experiment [2] was 2 throughout. With “nitrogenase reductase NifH (dimer) from Methanocaldococcus infernus (enzyme)”, in experiment [3], the stoichiometry N was found to be 2.

These data come from article doi:10.64898/2025.12.07.692841.
